This is an account of results in publication PMC5342555, “ATAD2 is an epigenetic reader of newly synthesized histone marks during DNA replication” (Oncotarget, 2016).

For assay [1], the system named is MCF7 cells. Nature of the assay: EdU incorporation (DNA replication) by flow cytometry. Type of assay: cell-based. Conditions: MCF7 overexpressing tagGFP-tagged ATAD2, gated by tagGFP; mean ± SEM, n = 3 independent experiments. The protocol:
informed consent was obtained (Indivumed, Hamburg, by incubating cells with primary antibodies for 1 h at Germany; Asterand, Detroit USA; Provitro Berlin, RT followed by labelling with secondary antibodies Germany) of different indications. Immunohistochemistry conjugated with Alexa488 or Alexa647 for 30 min at was performed using EnVision System-HRP (DAB) from RT in dark. For analysis of TagGFP-ATAD2 expressing Dako (K4006 and K4010). Prior to immunostaining the cells GFP was stained by GFP antibody to enhance the slides were deparaffinized and rehydrated in xylene and fluorescence signal. DNA was stained by DAPI at 1 μg/ graded ethanol to distilled water. Antigen was retrieved by ml for 10 min at RT. For EdU (5-ethynyl-2'-deoxyuridine) incubating the tissue in boiling Target Retrieval Solution labelling cells were incubated in 10 μM EdU for 2h at 37 pH 6.0 (Dako S2031) for 40 min and letting them cool °C prior to fixation and staining was carried out according […]
Peroxidase-Block for 15 min at RT the slides were washed Fluor® 647 Flow Cytometry Assay Kit, ThermoFisher). twice in washing buffer (PBS with 0.05 % Tween 20) and Cells were analyzed by flow cytometry using a BD LSR incubated with primary antibodies in Antibody-Diluent II. All imaging and quantifications were performed using […]
(Dako S2022) for 90 min at RT. […]
Immunofluorescence of cells were saved for whole cell extract and the rest was subjected for subsequent fractionation. Whole cell extract […]
and fixed in 2 % FA for 10 min at RT. […] The image series were imported in Fiji and 100 % MeOH for 10 min at – 20 °C and incubated in average fluorescence was in the bleached region (F(t)ROI), […]
For orientation: A flow cytometer gives signals particle by particle.

For assay [2], the system named is MCF7 cells. Nature of the assay: Fluorescence recovery after photobleaching (FRAP). Type of assay: cell-based. Conditions: TagGFP-tagged ATAD2 in MCF7, FRAP, 20 images; mean ± SEM. Here is the method:
Immunofluorescence of cells were saved for whole cell extract and the rest was subjected for subsequent fractionation. Whole cell extract
Cells were grown on Matrigel-coated coverslips and was prepared by incubating cells in ice-cold RIPA buffer fixed in 4 % formaldehyde in PBS for 15 min at RT or in (25 mM Tris·HCl pH 7.6, 150 mM NaCl, 1 % NP-40, 1 100 % methanol for 7 min at -20 °C. After removing the % sodium deoxycholate, 0.1 % SDS) supplemented with residual FA or methanol by washing in PBS cells were protease inhibitor cocktail (Roche) for 10 min on ice and permeabilized in blocking solution (10 % goat serum sonicated at medium power, 0.5 intervals in BIORUPTOR and 0.3 % Triton X-100 in PBS) for 10 min at RT and for 3 min at 4 °C. Soluble lysate was recovered by incubated with primary antibodies in blocking solution. removing insoluble fractions after centrifugation at 20000 Following the removal of unbound antibodies by washing x g for 10 min 5 to 20 μg of lysates were used for SDS gel in PBS cells were incubated with secondary antibodies electrophoresis and Western blot. conjugated with Alexa Fluor 488, 555 or 647 (Invitrogen), washed and mounted on slides in presence of DAPI for Fluorescence recovery after photobleaching visualization of nucleus. Images were acquired using an (FRAP) inverted Zeiss LSM700 confocal microscope using a 488 nm Diode-Pumped Solid State Laser with a 63X, 1.3 N.A. FRAP experiment was performed as previously oil-immersion objective. For EdU labelling cells were described with minor modifications. […]
and fixed in 2 % FA for 10 min at RT. […] The image series were imported in Fiji and 100 % MeOH for 10 min at – 20 °C and incubated in average fluorescence was in the bleached region (F(t)ROI), stain buffer with 5 % normal goat serum for 10 min at the total cell nucleus (F(t)total) and a background (F(t)BG) RT for blocking. Then indirect staining was performed were determined. The relative fluorescence intensity

Assay [3] concerns HDAC1 binding to H4K5,12diac. Nature of the assay: In vitro competition with HDAC1 for immobilized H4K5,12diac peptides (direct binding pull down). Particulars: increasing amount of ATAD2^342-1390 2 h, then 0.1 μM recombinant HDAC1 2 h; 1 μM immobilized peptide. The protocol: H4 peptides (1-25) conjugated with Biotin was immobilized on Streptavidin-coupled Dynabeads for 2 hours at 4 °C and incubated with nuclear extract from MCF7 cells. Nuclear extract was prepared by first isolating nucleus in hypotonic buffer (10 mM Tris-HCl pH 8.5, 10 mM NaCl, 0.5 mM TCEP and 0.1 % NP-40) and disrupting nuclear envelop in high salt buffer (20 mM Tris-HCl pH 8.5, 420 mM NaCl, 0.5 mM TCEP, 0.1 % Triton X-100, 25 % Glycerol) for 2 hours at 4 °C. Soluble nuclear extract was harvested by centrifugation at 20000 g for 20 min and diluted to 1:3 in buffer without NaCl in order to achieve physiological salt concentration, 140 mM. The nuclear extract was incubated with the immobilized peptides on the Streptavidin-Dynabeads overnight at 4 °C. Next day, the beads were washed three times with washing buffer (20 mM Tris-HCl pH 8.5, 140 mM NaCl, 0.5 mM TCEP, 0.1 % Triton X-100, 25 % Glycerol) and twice with high salt buffer. Bound proteins were recovered by boiling the beads in 1X sample buffer for 5 min. at 95 °C and analyzed by SDS-PAGE and Western Blotting. For direct binding experiments 1 μM of immobilized histone peptides on Streptavidin-Dynabeads were incubated with indicated amounts of ligands for 2 hours at 4 °C. After stringent washing as described above, bound proteins were analyzed in Western Blotting.

B1: BD mut: TagGFP-tagged BD mutant ATAD2 (V1013A, Y1021A, Y1063A, I1074A) expressed in MCF7 cells (protein, UniProt Q6PL18 1-1390, looked up, variant V1013A Y1021A Y1063A I1074A)
ATPase family AAA …: MVVLRSSLELHNHSAASATGSLDLSSDFLSLEHIGRRRLRSAGAAQKKPAATTAKAGDGSSVKEVETYHRTRALRSLRKDAQNSSDSSFEKNVEITEQLANGRHFTRQLARQQADKKKEEHREDKVIPVTRSLRARNIVQSTEHLHEDNGDVEVRRSCRIRSRYSGVNQSMLFDKLITNTAEAVLQKMDDMKKMRRQRMRELEDLGVFNETEESNLNMYTRGKQKDIQRTDEETTDNQEGSVESSEEGEDQEHEDDGEDEDDEDDDDDDDDDDDDDDEDDEDEEDGEEENQKRYYLRQRKATVYYQAPLEKPRHQRKPNIFYSGPASPARPRYRLSSAGPRSPYCKRMNRRRHAIHSSDSTSSSSSEDEQHFERRRKRSRNRAINRCLPLNFRKDELKGIYKDRMKIGASLADVDPMQLDSSVRFDSVGGLSNHIAALKEMVVFPLLYPEVFEKFKIQPPRGCLFYGPPGTGKTLVARALANECSQGDKRVAFFMRKGADCLSKWVGESERQLRLLFDQAYQMRPSIIFFDEIDGLAPVRSSRQDQIHSSIVSTLLALMDGLDSRGEIVVIGATNRLDSIDPALRRPGRFDREFLFSLPDKEARKEILKIHTRDWNPKPLDTFLEELAENCVGYCGADIKSICAEAALCALRRRYPQIYTTSEKLQLDLSSINISAKDFEVAMQKMIPASQRAVTSPGQALSTVVKPLLQNTVDKILEALQRVFPHAEFRTNKTLDSDISCPLLESDLAYSDDDVPSVYENGLSQKSSHKAKDNFNFLHLNRNACYQPMSFRPRILIVGEPGFGQGSHLAPAVIHALEKFTVYTLDIPVLFGVSTTSPEETCAQVIREAKRTAPSIVYVPHIHVWWEIVGPTLKATFTTLLQNIPSFAPVLLLATSDKPHSALPEEVQELFIRDYGEIFNVQLPDKEERTKFFEDLILKQAAKPPISKKKAVLQALEVLPVAPPPEPRSLTAEEVKRLEEQEEDTFRELRIFLRNVTHRLAIDKRFRVFTKPADPDEVPDAVTVIKQPMDLSSVISKIDLHKYLTVKDYLRDIDLICSNALEANPDRDPGDRLARHRACALRDTAYAIIKEELDEDFEQLCEEIQESRKKRGCSSSKYAPSYYHVMPKQNSTLVGDKRSDPEQNEKLKTPSTPVACSTPAQLKRKIRKKSNWYLGTIKKRRKISQAKDDSQNAIDHKIESDTEETQDTSVDHNETGNTGESSVEENEKQQNASESKLELRNNSNTCNIENELEDSRKTTACTELRDKIACNGDASSSQIIHISDENEGKEMCVLRMTRARRSQVEQQQLITVEKALAILSQPTPSLVVDHERLKNLLKTVVKKSQNYNIFQLENLYAVISQCIYRHRKDHDKTSLIQKMEQEVENFSCSR
modifications: TagGFP tag
notes: TagGFP-tagged BD mutant ATAD2 (V1013A, Y1021A, Y1063A, I1074A) expressed in MCF7 cells
Take B1: in the assay on MCF7 cells [1], the “EdU incorporation (normalized to control)” value was determined as 0.5 ± 0.10. Further, the “half recovery time (recovery t1/2)” value with MCF7 cells [2] is 7.951 s.

B2: ATAD2^342-1390: recombinant FLAG-tagged ATAD2 residues 342 to 1390, purified from Sf9 cells (protein)
chain: SPYCKRMNRRRHAIHSSDSTSSSSSEDEQHFERRRKRSRNRAINRCLPLNFRKDELKGIYKDRMKIGASLADVDPMQLDSSVRFDSVGGLSNHIAALKEMVVFPLLYPEVFEKFKIQPPRGCLFYGPPGTGKTLVARALANECSQGDKRVAFFMRKGADCLSKWVGESERQLRLLFDQAYQMRPSIIFFDEIDGLAPVRSSRQDQIHSSIVSTLLALMDGLDSRGEIVVIGATNRLDSIDPALRRPGRFDREFLFSLPDKEARKEILKIHTRDWNPKPLDTFLEELAENCVGYCGADIKSICAEAALCALRRRYPQIYTTSEKLQLDLSSINISAKDFEVAMQKMIPASQRAVTSPGQALSTVVKPLLQNTVDKILEALQRVFPHAEFRTNKTLDSDISCPLLESDLAYSDDDVPSVYENGLSQKSSHKAKDNFNFLHLNRNACYQPMSFRPRILIVGEPGFGQGSHLAPAVIHALEKFTVYTLDIPVLFGVSTTSPEETCAQVIREAKRTAPSIVYVPHIHVWWEIVGPTLKATFTTLLQNIPSFAPVLLLATSDKPHSALPEEVQELFIRDYGEIFNVQLPDKEERTKFFEDLILKQAAKPPISKKKAVLQALEVLPVAPPPEPRSLTAEEVKRLEEQEEDTFRELRIFLRNVTHRLAIDKRFRVFTKPVDPDEVPDYVTVIKQPMDLSSVISKIDLHKYLTVKDYLRDIDLICSNALEYNPDRDPGDRLIRHRACALRDTAYAIIKEELDEDFEQLCEEIQESRKKRGCSSSKYAPSYYHVMPKQNSTLVGDKRSDPEQNEKLKTPSTPVACSTPAQLKRKIRKKSNWYLGTIKKRRKISQAKDDSQNAIDHKIESDTEETQDTSVDHNETGNTGESSVEENEKQQNASESKLELRNNSNTCNIENELEDSRKTTACTELRDKIACNGDASSSQIIHISDENEGKEMCVLRMTRARRSQVEQQQLITVEKALAILSQPTPSLVVDHERLKNLLKTVVKKSQNYNIFQLENLYAVISQCIYRHRKDHDKTSLIQKMEQEVENFSCSR
As to B2, in assay [3], the “competition with HDAC1 for binding to H4K5,12diac peptides” value was “outcompeted”.
